± gives the uncertainty stated by the source.
Assay: amyloid nucleation score (Sup35N fusion, yeast selection) (log enrichment); library NNK2; higher = more nucleation; inactive = no reads after selection
Outline: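 On medium lacking adenine and uracil, psi-negative yeast expressing peptides of 20 random codons fused to Sup35N were grown 7 days at 30°C after a 24-hour induction with 100 μM copper sulfate. Illumina sequencing of input and output plasmid inserts gave the reads, and sequences under 100 input reads were excluded. The nucleation score is the DiMSum log enrichment of output over input reads, centred on the mode score of non-aggregating sequences.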

Substance | amyloid nucleation score
ISMTTVDPQMEEFGLRHVGV | 0.831 ± 0.31
PRRNTADCIGCTDRTGRRRC | 0.6 ± 0.39
YKETFGIA | -1.36 ± 0.49
VPGLESMR | 0.57 ± 0.81
VLSVGAGKYGLSLISSTTTI | 1.28 ± 0.66
TISFELSGMGIPSLWICGSR | 0.252 ± 0.65
SCIYLGVLRKVCMRFIMVIV | -1.03 ± 0.63
GMWRIPYGWGPCYHSCVNQG | 4.958 ± 0.047
IMCEGSTPDFIIYSCMLLVY | -1.41 ± 0.42
FRVDYKMKCAFASHFSNSFY | inactive
QYALLVY | inactive
LFRQEAMIPL | 0.594 ± 0.66
VLGNGYPD | -0.19 ± 1.1
TASSLCIQVGYVIFLY | 8.072 ± 0.032
YGVFYCSMPYCTSWGIHCVL | 7.19 ± 0.077
SDNMFSWRCLKDTWLDRRWA | 0.294 ± 0.22
RNYLNMVYGLFFCIHCSCFS | 5.853 ± 0.05
DESICCQEVGNSRVDSDEGR | 2.94 ± 0.12
RVYNITILYRCLKRRLS | 0.878 ± 0.57
EIIYSQSDSVYGCGGY | inactive
NNHGLRTYIGPYISWLIYFS | 2.53 ± 0.17

Substance | amyloid nucleation score
VVWGERVHGIWLMCYCNWTG | 5.51 ± 0.091
NWLSMWLWFVCMSLVCMVFR | 1.77 ± 0.16
LSPIVVPLYKQLDIFGVRRN | inactive
SFHWPSTGYKRVYFSPLLIV | inactive
SVIISVVD | -0.851 ± 0.35
IPRIRR | 0.622 ± 0.66
CRAHMCLQFNYWTRVMNTPT | 6.809 ± 0.068
LMDQSTFNRVKYVGHWVVSG | 1.74 ± 0.087
VERFWLIWSRAYYFDFRVRE | 0.098 ± 0.79
WQIGPCYNVLRFLKWFWSLR | -0.637 ± 1.1
CIFILTD | -1.67 ± 0.45
CTAHYYCQGCWTSRMLNLTA | -0.116 ± 0.47
CVKDQSSRRRWLIYWAHSLS | -0.145 ± 0.76
AVVTPKMIMMGWTEGGINVR | -0.864 ± 0.76
TITILV | 0.089 ± 0.23
KIVLGYCVLKITEQELMLWV | inactive
IAICVNARE | 0.838 ± 0.35
FVYGQWPNRSRAISSTSMFK | -0.723 ± 0.36
KVALVHAGLKNFWRSSLWRL | 1.11 ± 0.41
MPPRGKSWSVRTSLWKQIFM | 3.24 ± 0.11
IQYGEIGHIFCKVVISLNLE | 1.47 ± 0.2

Substance | amyloid nucleation score
DGPLSLNSIHFTWLRAMDKV | -0.297 ± 1.1
TYVAFGGWLLEMPMLPTWSQ | 0.332 ± 0.37
LKKFVPPELRSADVDRKCSK | inactive
IELGFFSGTVIVVSYWEFTR | -1.02 ± 1
YNCLRMELVLSHKGDLTLM | 5.25 ± 0.091
VYGSCSVMLGNWCSSVFKVL | 0.174 ± 1
SAWRVCYRTNENCAPFMYVL | -1.22 ± 0.75
IFSLDFSGYVSLYLQKMNVL | 0.815 ± 0.15
LCDPLLVKNCRLRLTVLWGM | -0.057 ± 0.63
STESARSKRGMSSPMNSIRA | 0.029 ± 0.32
TCFTSCSG | 0.263 ± 0.37
IMFASKHCSVGVMLKIGRTF | 0.209 ± 0.33
ELLEGYSLKEMYAFPVKWAV | 0.741 ± 0.6
GRLLQGWLIAEHVITVHFPM | inactive
CKKEVL | inactive
NFMCVSYQAAANSILRVPQS | 1.28 ± 0.11
QVMMIWCIWDY | 6.949 ± 0.042
SLTVFHLKYMSQNIKAE | -0.797 ± 1
RKVCFLAVKCGGFVCFIVRA | inactive
DLFNRNIVVCSLFLGYMVTI | 2.99 ± 0.092
LVSTEIN | 3.75 ± 0.052

Substance | amyloid nucleation score
SFYLLCLSFMSLCWASRLVV | 4.83 ± 0.073
MRVRLGSATR | 0.47 ± 0.34
LVHFNFMCVVARMFDMFF | inactive
SLCMHTAVFHS | 0.092 ± 0.32
MCTGRFFSITSYGCKESSYL | 1.49 ± 0.26
CVFKVVPLVL | 0.005 ± 1
RTCTNYVMINETVVR | inactive
HKMADSTNDSNRLEFDMFNE | -0.881 ± 0.78
HFIIYYDSYNTMVIGEFAVQ | inactive
YNLYHSCLDQRTYHSGKFSI | 2.3 ± 0.14
TAIYENYCMSVMWMLVVGRI | -0.277 ± 0.3
VNGPEDPPVHKLMKSTRRSC | 2.79 ± 0.088
TSVIGKSGPRYLFLEC | 0.299 ± 0.8
TPDGIRLSVAHCS | 0.764 ± 0.24
TSVNALFRWPRLFSYRREPV | 0.202 ± 0.79
CLAFLGLLKSFMITKGW | -1.49 ± 0.78
KLPMRNFRDVCEADLHPVK | 1.11 ± 0.61
CDILPDLPGRFALVRKASHN | 1.11 ± 0.45
GGVAETGERFWHSRLHG | 0.679 ± 0.81
TKMYVD | -0.573 ± 1.1
PGHSWMMSDDPDRYMNNLTV | -0.053 ± 0.79

Source: the supplement of paper PMC12042874
